Reference: patent US20240218057A1 (ROCKEFELLER UNIVERSITY, published 2024)

B1: C863 (antibody, V domains shown)
VH: EVQLLESGGGLVRPGGSLRLSCAASGFIFGSYAMTWVRQAPGKGLEWVSTISGGGTSTDYADSVKGHFTISRDNGKNTLYLQMNSLRAEDTAVYYCVKESDYYMASVNGMDVWGHGTTVTVSS
VL: EIVLTQSPGTLSLSPGERATLSCRARQGVSSTYLAWYQQKPGQAPRLLIYGASSRATGIPDRFSGSGSGADFTLTISRLEPEDFAVYYCQQYGTSPYTFGQGTKLEIK
notes: IgG; V domains only
B2: C839 (antibody, V domains shown)
VH: QVQLQESGPGLVKPLDTLSLTCTVSGASISSYYWSWIRQPAGKGLEWIGLIYSSGSTTYNPSLKSRVTMSVDTSKKQFSLNLSSMTAADTAVYYCARGSALNWKSIGYFDSWGQGTLVTV
VL: DIQMTQSPSSLSASIRDRVTITCQASQDISNYLNWYQQKAGEAPKLLIYDASSLETGVPSRFSGSGSGTEFTLTISSLQPEDIATYYCQQYDHVPLTFGGGTKVEIK
notes: IgG; V domains only
B3: C844 (antibody, V domains shown)
VH: EVQLVESGGGLVKPGGSLRLSCVATGFSFSDAWMNWVRQAPGKGLEWVGRIRSEIADGTTDYAAPVKGRFTISRDDARNTLYLQMNSLEIEDTAVYYCTTGVVVVVSSSPDDAFDVWGQGTMVTVSS
VL: DIQMTQSPSSLSASVGDRVTITCRASQSIGHYLNWYQQKPGKAPKLLIYAASSLQSGVPSRFSGSGSGAGFTLTVNGLQPEDLATYYCQQYYTTPPTFGQGTKVEIK
notes: IgG; V domains only
B4: C848 (antibody, V domains shown)
VH: QVQLQESGPGLVKPSQTLSLTCTVSGGSISSGDYYWSWIRQPPGKGLEWIGYIYYTGITYYRPSLKSRVTISVDTSKNQFSLKLSSVTAADTAVFYCARVVRLWPRYFDSWGQGTLVTVSS
VL: QSALTQPPSASGSPGQSVTISCTGTSSDVGTYDYVSWYQQHPGKAPKVIIYEVTKRPSGVPDRFSGSKSGNTASLTVSGLQAEDEAHYYCSTYAGSDNLEFGGGTKLTVL
notes: IgG; V domains only
B5: C864 (antibody, V domains shown)
VH: QVQLVQSGPEVKKPGTSVKVSCKAFQLSFSVSAVQWVRQARGQRLEWIGWIVVGSGNTNYAQKFQERVTITRDMSTSTVYMEVRSLRSEDTAVYYCAAPQCNRTTCYDAFDMWGQGTMVTVSS
VL: EIVLTQSPGTLSLSPGERATLSCRASQSVNSNYLAWYQQKPGQAPRLLIFGPSNRATGIPDRFSGSGSGTDFTLTISRLESEDFAVYYCQQYGSSPWTFGQGTKVEIK
notes: IgG; V domains only
B6: C856 (antibody, V domains shown)
VH: QVQLVESGGGVVQPGRSLRLSCAASGFTFSSYGMHWVRQAPGKGLEWVAVISYDGSNKYYADSVKGRFTISRDNSKNTLYLQMSSLRAEDTAVYYCAKQIGEYCSGGSCYQGSLDYWGQGTLVTVSS
VL: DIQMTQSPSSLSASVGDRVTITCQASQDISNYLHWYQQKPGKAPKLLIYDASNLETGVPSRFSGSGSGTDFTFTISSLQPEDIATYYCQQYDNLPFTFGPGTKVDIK
notes: IgG; V domains only
B7: C843 (antibody, V domains shown)
VH: QVQLVESGGGVVQPGRSLRLSCAASGFTFSRYAMHWVRQAPGKGLEWVAVISYDGSNKYYATSLKGRCTISRDNSKNTLYLQMNSLRAEDTAVYFCAKQIGEYCSGGNCYQGSLDYWGQGTLVTVSS
VL: DIQMTQSPSSLSASVGDRVTITCQASQDISNYLNWYQQKPGKAPKLLIYDASDLETGVPSTFSGSGSGTDFTLTISSLQPEDFATYYCQQYDIVPFTFGPGTKVDIK
notes: IgG; V domains only
B8: C842 (antibody, V domains shown)
VH: QVQLVESGGGVVQPGRSLRLSCAASGFTFSTYAIHWVRQAPGKGLEWVAAISYDGSNKYYSDSVKGRLFISRDNSNNTVYLQMNNLRAEDTAIYYCARDGTIVTLVRGVMGPPFDYWGQGTLVTVSS
VL: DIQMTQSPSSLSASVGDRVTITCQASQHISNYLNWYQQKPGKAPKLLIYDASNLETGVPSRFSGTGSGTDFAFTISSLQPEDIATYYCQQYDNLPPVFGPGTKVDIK
notes: IgG; V domains only
B9: C854 (antibody, V domains shown)
VH: EVQLVESGGGLIQPGGSLRLSCAASGITVSSNYMNWVRQAPGKGLEWVSVLYAGGSTFYADSVKGRFTISRDDSKNTLYLQMDSLRAEDTAVYYCARDLSSSGGFDYWGQGTLVTVSS
VL: EIVLTQSPGTLSLSPGERATLSCRASQSVSSSYLAWYQQKPGQAPRLLIYGASSRATGIPDRFSGRGSGTDFTLTISRLEPEDFAVYYCQQYGSLYTFGQGTKLEIK
notes: IgG; V domains only
B10: C841 (antibody, V domains shown)
VH: EVQLVESGGGLVQPGGSLRLSCAASGFTFSIFSMNWVRQAPGKGLEWISYISSSSGSRHYADSVKGRFTISRDNAKNSLYLQMNNLRDEDTAMYYCAREAHDGALTGYGDYLNWFDPWGQGVLVTVSS
VL: SYELTQPPSVSVAPGKTARIPCGGDSVGSKSVHWYQQKSGQAPVLVIHSDSDRPSGIPERFSGSNSGNTATLTITGVAAGDEADYYCHVWDTIGDRFYWVFGGGTKLTVL
notes: IgG; V domains only
B11: C855 (antibody, V domains shown)
VH: QVQLVESGGGVVQPGRSLRLSCAASGFAFSTYGMHWVRQTPGKGLAWVAAISYDGRNTYYGDSVKGRFTITRDNSKNTLYLQLNSLRDEDTALYYCARDATMITLVRGIMGPPFDHWGQGSLVTVSS
VL: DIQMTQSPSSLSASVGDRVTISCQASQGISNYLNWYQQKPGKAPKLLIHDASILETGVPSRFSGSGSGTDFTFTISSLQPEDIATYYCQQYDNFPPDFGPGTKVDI
notes: IgG; V domains only
B12: C857 (antibody, V domains shown)
VH: QVQLQESGPGLVKPSQTLSLTCTVSGGSISSGGYYWSWIRQHPGKGLEWIGYIYYSGSTYYNPSLESRVTISVDTSKNQFSLKLSSVTAADTAVYYCASGELSAFGELFPHDYWGQGTLVTVSS
VL: EIVLTQSPATLSLSPGERATLSCRASQSVSTYLAWYQQKPGQAPRLLIYDASNRATGIPARFSGSGSGTDFTLTISSLEPEDFAVYYCQQRSNWLFTFGPGTKVDIK
notes: IgG; V domains only
B13: C845 (antibody, V domains shown)
VH: QVQLQESGPGLVKPSQTLSLTCTVSGASISSGEYYWSWVRQPPGKGLEWVGYIYYSGSTYYNPSLKSRVTISVDTSKNHFSLKLKSLTAADTAVYFCATGGLSAFGELFPHDKWGQGTLVTVSS
VL: EIVLTQSPATLSLSPGERATLSCRASQSVGSDLAWYQQKPGQAPRLLIYDTSNRATGIPARFSGSGSGTDFTLTISSLDPADFAVYYCQQRTNWLFSFGPGTKVDIK
notes: IgG; V domains only
B14: C840 (antibody, V domains shown)
VH: QVQLVESGGGVVQPGRSLRLSCEASGFTFTAYAMHWLRQAPGKGLEWVAVILNDGSNKLYADSVKGRFTVSRDNSKNMLYLQVNSLRVDDTAVYYCARDGSVDTLMVTWFDYWGQGTLVTVSS
VL: DIQMTQSPSSLSASVGDRVTITCRASQSVNNYLNWYQQKPGQAPKLLIYAASSLQSGVPLRFSGSGSGTDFALTITSLHTEDFATYYCQQSYNTPPWTFGPGTKVEIK
notes: IgG; V domains only
B15: C847 (antibody, V domains shown)
VH: QVQLVESGGGVVQPGGSLRLSCGASGFTFSSYAMHWVRQAPGEGLEWVAVILYDGAGKFYADSVKGRFTISRDNSKNTLYLQMNSLRAEDTAVYYCARDYGDYVTHFDYWGQGALVTVSS
VL: DIQMTQSPSSLSASVGDRVTITCRASQSISSYLNWYQQKPGKAPKLLIYTASSLQSGVPSRFSGSGSGTDFTLTITSLQPEDFATYYCQQSYNTPPWTFGQGTKVEIK
notes: IgG; V domains only
B16: C846 (antibody, V domains shown)
VH: QVQLVESGGGVFQPGRSLRLSCAASGFNFRTYAMHWVRQAPGKGLEWVAVILDDGSGKFYADSVKGRFTVSRDNSKHTLYLQMTSLSAEDTAIYFCARDQGTATTYFDHWGQGTLVTVSS
VL: DIQMTQSPSSLSASVGDRVTITCRASQSIRTFLSWYQQKAGKAPKLLIYTASSLQNGVPSRFSGSGSGTDFTLTISSLQPEDFATYYCQQSYETPPWTFGQGTKVEIK
notes: IgG; V domains only
B17: C859 (antibody, V domains shown)
VH: QVQLVQSGAELKKPGASVRVSCKASGYTFTDYYIHWVRQAPGQGFEWMGWINPDSGGTNYPQNFQGRVTMTRGTSISTAYVELTRLRFDDTAVYYCARTSSPHSSSTGDLDYWGQGTLVTVS
VL: SYELTQSPSVSVAPGKTARITCGGRDIGSKSVHWYQQRPGQAPVLVISYDNDRPSGIPERFSGSNSGNTATLTISRVEAGDEADYYCQVWDGTGDHPGWVFGGGTRLTVL
notes: IgG; V domains only
B18: C849 (antibody, V domains shown)
VH: QVQLVQSGAEVKKPGASVKVSCRASGYTFTDHYIHWVRQAPGQGLEWMGWINPNSGDTNYPQKFQGRVTMARDTSISTAHMELRRLKSDDTAVYYCARTSSPHSSSTGDFDSWGQGTLVTVSS
VL: SYELTQPPSVSVAPGKTARITCGGDDIGSKSVHWYQQKSGQAPVLVIHDDSDRPSGIPERFSGSNSGNTATLTISRVEAGDEADYYCQVWDFTGDHPGWVFGGGTKLTVL
notes: IgG; V domains only
B19: C853 (antibody, V domains shown)
VH: QVQLQESGPGLVKASQTLSLTCTVSGGSFRSGGYYYNWIRQHPGKGLEWIGYIFYTGVTYYNPSLKSRVSISVDTSKNQLSLNLTSVTAADTAVYYCARGSYSDYNGGWDYWGRGTLVTVS
VL: QSALTQPPSASGSPGQSVTISCIGTSSDVGGYNYVSWYQHHPGKAPKLIIYEVSKRPSGVPDRFSGSKSGNTASLTVSGLQADDEADYYCSSYAGSNNWVFGGGTKLTV
notes: IgG; V domains only
B20: C851 (antibody, V domains shown)
VH: QLQLQESGPGLVKTSETLSLTCTVSGGSISSGNSYWGWIRQPPGKGLEWIGDIYYSGSTFYNPSLKSRLTISVDTSKNQFSLKLTSVTAADTAVYYCARRGGRTPVRFNYGGDVWGQGTTVTVSS
VL: DIQMTQSPSSLSASVGDRVTITCQASQDISRYLNWFQHKPGKAPKLLIYDASNLEAGVPSRFTGSGSGTEFTFTISSLQPEDFAIYFCQQYDSLPLTFGGGTKVEI
notes: IgG; V domains only
B21: C860 (antibody, V domains shown)
VH: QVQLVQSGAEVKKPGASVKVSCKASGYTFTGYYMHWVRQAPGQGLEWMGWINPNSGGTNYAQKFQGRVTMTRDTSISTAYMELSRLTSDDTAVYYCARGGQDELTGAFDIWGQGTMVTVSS
VL: SYELTQPPSVSVAPGKTARITCGGNSIGSKSVHWYQQKPGQAPVLVIYYDSDRPSGIPERFSGSNSGNTATLTISRVEAGDEADFHCQVWDSGWVFGGGTKLTVL
notes: IgG; V domains only
B22: C852 (antibody, V domains shown)
VH: QVQLVQSGAEVKKPGASVKVSCKASGYIFTGFYMHWVRQAPGQGPEWMGWINPNSGGTNYAQKFQGRVTMTRDTSISTAYMELSRLRSDDTALYYCARGGQDELTGTFDVWGQGTMVTVSS
VL: SYELTQPPSVSLAPGKTASITCGGDSIGSKSVHWYQQRPGQAPILVIYYDGDRPSGIPERFSGSNSGNTATLTISRVEAGDEADYYCQVWDGGWVFGGGTKLTVL
notes: IgG; V domains only
B23: C850 (antibody, V domains shown)
VH: QVQLQESGPGLVKPSETLSLICSVSGVSVSSRNFFWSWIRQPPGKGLEWIGYMSYGGNTNYNPSLKSRVTISIDTSKNQFSLKLSSVTAADTAVYYCARETYYYDRSGYYSSDGFDYWGQGILVTVSS
VL: EIVLTQSPGTLSLSPGERATLSCRASQSITSSSLAWYQQKRGQPPRLLIYGASSRATGIPDRFSGSGSGTDLTLTISRLEPEDFAVYYCQQYGNSPYTFGQGTKLEIK
notes: IgG; V domains only

The binders below were run against T1, SARS-COV-2 RBD (SARS-COV-2, UniProt P0DTC2 319-539) (assay: ELISA, RBD coated).
T1 construct: also called WT RBD
B1 showed an EC50 of 3.31 ng/mL.
For B2, the EC50 was 4.38 ng/mL.
In the case of B3, the EC50 is reported as 1.53 ng/mL.
In the case of B4, the EC50 is reported as 2.23 ng/mL.
Binder B5 has an EC50 of 1.89 ng/mL.
B6 was tested, and the EC50 was 2.65 ng/mL.
In the case of B7, the EC50 is reported as 2.4 ng/mL.
With B8 the EC50 was 3.01 ng/mL.
B9 showed an EC50 of 2.57 ng/mL.
B10 was tested, and the EC50 was 3.15 ng/mL.
In the case of B11, the EC50 is reported as 2.73 ng/mL.
B12 gave an EC50 of 2.01 ng/mL.
For B13, the EC50 was 1.5 ng/mL.
With B14 the EC50 was 1.36 ng/mL.
B15 was tested, and the EC50 was 3.06 ng/mL.
B16 was tested, and the EC50 was 3.48 ng/mL.
With B17 the EC50 was 2.75 ng/mL.
With B18 the EC50 was 3.64 ng/mL.
Work on B19 yielded an EC50 of 2.3 ng/mL.
With B20 the EC50 was 2.83 ng/mL.
In the case of B21, the EC50 is reported as 2.61 ng/mL.
B22 was tested, and the EC50 was 4.59 ng/mL.
Binder B23 has an EC50 of 3.7 ng/mL.
